# Data from patent US6815187.
# Test system: syndecan-4 cytoplasmic tail peptide with a phosphorylated Ser (S4c-P)
substance,measurement,value
Recombinant PKCα,"phosphorylation level of the PKCβ1 optimal substrate peptide by PKCα, in the presence of PIP2",the phosphorylation level of the substrate was similar to that obtained with PIP2 alone
